IntAct's records for PubMed 7651520

Target: ste20_yeast STE20 (UniProt Q03497)
Sequence (Q03497 whole entry): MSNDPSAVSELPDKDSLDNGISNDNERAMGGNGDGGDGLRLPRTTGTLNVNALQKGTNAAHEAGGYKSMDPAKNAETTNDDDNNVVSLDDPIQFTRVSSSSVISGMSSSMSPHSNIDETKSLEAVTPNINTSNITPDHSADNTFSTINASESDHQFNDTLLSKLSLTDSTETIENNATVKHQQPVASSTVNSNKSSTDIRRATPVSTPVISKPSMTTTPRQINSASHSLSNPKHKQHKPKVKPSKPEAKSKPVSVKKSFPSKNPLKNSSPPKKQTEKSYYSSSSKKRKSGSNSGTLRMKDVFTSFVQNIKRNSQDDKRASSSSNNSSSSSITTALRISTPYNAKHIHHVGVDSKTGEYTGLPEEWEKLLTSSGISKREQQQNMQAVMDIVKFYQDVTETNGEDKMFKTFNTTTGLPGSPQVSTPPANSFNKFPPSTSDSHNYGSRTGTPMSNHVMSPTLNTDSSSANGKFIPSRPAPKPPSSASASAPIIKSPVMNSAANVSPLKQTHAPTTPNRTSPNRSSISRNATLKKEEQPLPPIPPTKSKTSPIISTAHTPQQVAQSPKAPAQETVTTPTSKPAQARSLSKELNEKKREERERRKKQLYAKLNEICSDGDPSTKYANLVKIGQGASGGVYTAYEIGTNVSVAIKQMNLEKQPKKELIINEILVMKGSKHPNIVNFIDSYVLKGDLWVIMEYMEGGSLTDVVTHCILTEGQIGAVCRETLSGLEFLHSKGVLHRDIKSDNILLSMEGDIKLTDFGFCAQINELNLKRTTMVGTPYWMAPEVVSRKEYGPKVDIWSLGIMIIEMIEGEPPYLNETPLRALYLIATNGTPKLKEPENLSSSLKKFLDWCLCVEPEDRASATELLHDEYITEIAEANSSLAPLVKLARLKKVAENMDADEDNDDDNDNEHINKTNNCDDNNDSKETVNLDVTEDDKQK

Sequence of Cell division control protein 42 (Saccharomyces cerevisiae), P19073 C188S (P19073 whole entry C188S): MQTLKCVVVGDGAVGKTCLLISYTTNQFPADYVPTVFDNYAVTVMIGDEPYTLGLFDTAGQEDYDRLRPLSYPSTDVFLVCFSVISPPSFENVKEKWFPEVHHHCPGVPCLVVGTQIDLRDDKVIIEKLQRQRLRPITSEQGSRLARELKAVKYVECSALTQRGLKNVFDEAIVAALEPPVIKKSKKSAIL
Sequence of Cell division control protein 42 (Saccharomyces cerevisiae), P19073 G12V;C188S (P19073 whole entry G12V/C188S): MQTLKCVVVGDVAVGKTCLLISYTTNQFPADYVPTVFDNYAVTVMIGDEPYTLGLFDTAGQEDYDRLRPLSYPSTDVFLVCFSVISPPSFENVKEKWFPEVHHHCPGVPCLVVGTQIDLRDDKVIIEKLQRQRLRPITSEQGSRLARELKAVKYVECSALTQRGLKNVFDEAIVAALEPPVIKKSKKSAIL
Sequence of Cell division control protein 42 (Saccharomyces cerevisiae), P19073 Q61L;C188S (P19073 whole entry Q61L/C188S): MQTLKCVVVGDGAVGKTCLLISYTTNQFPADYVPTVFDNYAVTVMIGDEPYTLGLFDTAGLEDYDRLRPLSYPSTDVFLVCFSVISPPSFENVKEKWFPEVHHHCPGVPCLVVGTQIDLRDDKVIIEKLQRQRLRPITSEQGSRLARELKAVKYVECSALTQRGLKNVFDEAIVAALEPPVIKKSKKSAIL

| effect of a mutation on the interaction | Substance |
| --- | --- |
| increasing interaction | Cell division control protein 42 (Saccharomyces cerevisiae), P19073 G12V;C188S |
| increasing interaction | Cell division control protein 42 (Saccharomyces cerevisiae), P19073 C188S |
| increasing interaction | Cell division control protein 42 (Saccharomyces cerevisiae), P19073 Q61L;C188S |
